These results are taken from the supplement of paper PMC5998384.

Data set [1] has as its system HeLa Kyoto. The data set can be described thus: melting temperature (median over replicates), in situ; higher = more thermally stable.
For data set [2], the system named is HeLa Kyoto. Kind of data set: thermal stability score vs G1/S (z-score of summed log2 fold changes over temperatures); higher = more thermally stable than in G1/S.
Data set [3] deals with HeLa Kyoto. The data set can be described thus: solubility in G1/S (NP-40 vs SDS abundance) (log2 ratio); higher = more soluble. As to conditions: cell cycle stage: G1/S.
Data set [4] concerns HeLa Kyoto. The data set can be described thus: solubility change mitosis vs G1/S (difference of NP-40 vs SDS log2 ratios) (log2 ratio difference); higher = more soluble in mitosis.
Setting [5] is: cell cycle stage: early G1 (4.5 h after nocodazole release).
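Throughout, for melting temperature (median over replicates), in situ: HeLa Kyoto cells synchronized by double thymidine or nocodazole block, proteins quantified by TMT10plex mass spectrometry, three independent biological replicates.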
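Throughout, for solubility change mitosis vs G1/S (difference of NP-40 vs SDS log2 ratios): synchronized HeLa Kyoto cells (double thymidine block for G1/S, nocodazole release for mitosis), protein amounts in NP-40 versus SDS lysates quantified by mass spectrometry, three biological replicates.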
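Throughout, for solubility in G1/S (NP-40 vs SDS abundance): HeLa Kyoto cells arrested at G1/S by double thymidine block, proteins quantified by TMT10plex mass spectrometry in mild NP-40 versus SDS extracts, three biological replicates.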
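Throughout, for thermal stability score vs G1/S (z-score of summed log2 fold changes over temperatures): synchronized HeLa Kyoto cells, proteins quantified by TMT10plex mass spectrometry, three biological replicates, mitosis taken 0.5 h after nocodazole release, G1/S directly after double thymidine block.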

Take “MDGETAEEQGGPVPPPVAPGGPGLGGAPGGRREPKKYAVTDDYQLSKQVLGLGVNGKVLECFHRRTGQKCALKLLYDSPKARQEVDHHWQASGGPHIVCILDVYENMHHGKRCLLIIMECMEGGELFSRIQERGDQAFTEREAAEIMRDIGTAIQFLHSHNIAHRDVKPENLLYTSKEKDAVLKLTDFGFAKETTQNALQTPCYTPYYVAPEVLGPEKYDKSCDMWSLGVIMYILLCGFPPFYSNTGQAISPGMKRRIRLGQYGFPNPEWSEVSEDAKQLIRLLLKTDPTERLTITQFMNHPWINQSMVVPQTPLHTARVLQEDKDHWDEVKEEMTSALATMRVDYDQVKIKDLKTSNNRLLNKRRKKQAGSSSASQGCNNQ [MAPKAPK3]”: the values for the melting temperature with HeLa Kyoto [1] (cell cycle stage: G1/S) and in the data set with HeLa Kyoto [1] (cell cycle stage: mitosis) were 49.1 °C and 51.2 °C, respectively. Further, the thermal stability score in the data set on HeLa Kyoto [2] (setting [5]) stood at 0.292; in the data set on HeLa Kyoto [2] (cell cycle stage: mitosis), 1.45. Further, in the data set on HeLa Kyoto [3], the “solubility in G1/S (log2)” value is 0.454. For the same sequence, the “solubility change mitosis (log2)” value in the data set with HeLa Kyoto [4] was -0.141.
For the sequence “MDGFAGSLDDSISAASTSDVQDRLSALESRVQQQEDEITVLKAALADVLRRLAISEDHVASVKKSVSSKGQPSPRAVIPMSCITNGSGANRKPSHTSAVSIAGKETLSSAAKSGTEKKKEKPQGQREKKEESHSNDQSPQIRASPSPQPSSQPLQIHRQTPESKNATPTKSIKRPSPAEKSHNSWENSDDSRNKLSKIPSTPKLIPKVTKTADKHKDVIINQEGEYIKMFMRGRPITMFIPSDVDNYDDIRTELPPEKLKLEWAYGYRGKDCRANVYLLPTGKIVYFIASVVVLFNYEERTQRHYLGHTDCVKCLAIHPDKIRIATGQIAGVDKDGRPLQPHVRVWDSVTLSTLQIIGLGTFERGVGCLDFSKADSGVHLCIIDDSNEHMLTVWDWQKKAKGAEIKTTNEVVLAVEFHPTDANTIITCGKSHIFFWTWSGNSLTRKQGIFGKYEKPKFVQCLAFLGNGDVLTGDSGGVMLIWSKTTVEPTPGKGPKGVYQISKQIKAHDGSVFTLCQMRNGMLLTGGGKDRKIILWDHDLNPEREIEVPDQYGTIRAVAEGKADQFLVGTSRNFILRGTFNDGFQIEVQGHTDELWGLATHPFKDLLLTCAQDRQVCLWNSMEHRLEWTRLVDEPGHCADFHPSGTVVAIGTHSGRWFVLDAETRDLVSIHTDGNEQLSVMRYSIDGTFLAVGSHDNFIYLYVVSENGRKYSRYGRCTGHSSYITHLDWSPDNKYIMSNSGDYEILYWDIPNGCKLIRNRSDCKDIDWTTYTCVLGFQVFGVWPEGSDGTDINALVRSHNRKVIAVADDFCKVHLFQYPCSKAKAPSHKYSAHSSHVTNVSFTHNDSHLISTGGKDMSIIQWKLVEKLSLPQNETVADTTLTKAPVSSTESVIQSNTPTPPPSQPLNETAEEESRISSSPTLLENSLEQTVEPSEDHSEEESEEGSGDLGEPLYEEPCNEISKEQAKATLLEDQQDPSPSS [EML4]”, the melting temperature in the data set on HeLa Kyoto [1] (cell cycle stage: G1/S) is 51 °C; in the data set on HeLa Kyoto [1] (cell cycle stage: mitosis), 50.3 °C. Besides, the thermal stability score in the data set with HeLa Kyoto [2] (setting [5]) is -1.11; with HeLa Kyoto [2] (cell cycle stage: mitosis), -1.34. Also, the “solubility in G1/S (log2)” value in the data set on HeLa Kyoto [3] is -0.0517. Besides, the “solubility change mitosis (log2)” value with HeLa Kyoto [4] is -0.0416.
Turning to “MDGGDDGNLIIKKRFVSEAELDERRKRRQEEWEKVRKPEDPEECPEEVYDPRSLYERLQEQKDRKQQEYEEQFKFKNMVRGLDEDETNFLDEVSRQQELIEKQRREEELKELKEYRNNLKKVGISQENKKEVEKKLTVKPIETKNKFSQAKLLAGAVKHKSSESGNSVKRLKPDPEPDDKNQEPSSCKSLGNTSLSGPSIHCPSAAVCIGILPGLGAYSGSSDSESSSDSEGTINATGKIVSSIFRTNTFLEAP [FAM192A]”, the melting temperature in the data set with HeLa Kyoto [1] (cell cycle stage: G1/S) came to 57.6 °C. In addition, the thermal stability score with HeLa Kyoto [2] (setting [5]) is -1.68; with HeLa Kyoto [2] (cell cycle stage: mitosis) it was -2.27. Also, the “solubility in G1/S (log2)” value in the data set on HeLa Kyoto [3] worked out at 0.194. In the data set with HeLa Kyoto [4], the “solubility change mitosis (log2)” value was -0.000768.
“MDGIVTEVAVGVKRGSDELLSGSVLSSPNSNMSSMVVTANGNDSKKFKGEDKMDGAPSRVLHIRKLPGEVTETEVIALGLPFGKVTNILMLKGKNQAFLELATEEAAITMVNYYSAVTPHLRNQPIYIQYSNHKELKTDNTLNQRAQAVLQAVTAVQTANTPLSGTTVSESAVTPAQSPVLRIIIDNMYYPVTLDVLHQIFSKFGAVLKIITFTKNNQFQALLQYGDPVNAQQAKLALDGQNIYNACCTLRIDFSKLVNLNVKYNNDKSRDYTRPDLPSGDGQPALDPAIAAAFAKETSLLAVPGALSPLAIPNAAAAAAAAAAGRVGMPGVSAGGNTVLLVSNLNEEMVTPQSLFTLFGVYGDVQRVKILYNKKDSALIQMADGNQSQLAMNHLNGQKMYGKIIRVTLSKHQTVQLPREGLDDQGLTKDFGNSPLHRFKKPGSKNFQNIFPPSATLHLSNIPPSVAEEDLRTLFANTGGTVKAFKFFQDHKMALLQMATVEEAIQALIDLHNYNLGENHHLRVSFSKSTI [PTBP2]”: the melting temperature came out at 48.8 °C with HeLa Kyoto [1] (cell cycle stage: G1/S) and 49 °C in the data set with HeLa Kyoto [1] (cell cycle stage: mitosis). The thermal stability score in the data set on HeLa Kyoto [2] (setting [5]) worked out at 0.234; in the data set with HeLa Kyoto [2] (cell cycle stage: mitosis), 0.47. Moreover, the “solubility in G1/S (log2)” value in the data set with HeLa Kyoto [3] was 0.308. Further, the “solubility change mitosis (log2)” value in the data set with HeLa Kyoto [4] was -0.0237.
